Source: patent US20220204580A1 (AstraZeneca / MedImmune, published 2022)
Numbered stars: 1 amine (or outer) side, 2 acyl side, 3 side chain; on linkers, the order of the positions; unused ones are H or OH. Bridge positions count the residues as written; N and C are the ends. Square brackets hold non-standard residues; d marks the D form. Side chains are listed from the residue outwards. Ends that are not written are not given here. * marks the point of attachment. C18 diacid = O=C(O)CCCCCCCCCCCCCCCCC(=O)*; γGlu = O=C(O)[C@H](CCC(=O)[*:2])N[*:1]; αMeF = C[C@](N)(Cc1ccccc1)C(=O)O

T1: rat amylin receptor (calcitonin receptor co-expressed with receptor activity modifying protein, RAMP3) (rat, UniProt P32214 25-516; Q9JJ73 23-147)
T1 sequence (looked up) 1: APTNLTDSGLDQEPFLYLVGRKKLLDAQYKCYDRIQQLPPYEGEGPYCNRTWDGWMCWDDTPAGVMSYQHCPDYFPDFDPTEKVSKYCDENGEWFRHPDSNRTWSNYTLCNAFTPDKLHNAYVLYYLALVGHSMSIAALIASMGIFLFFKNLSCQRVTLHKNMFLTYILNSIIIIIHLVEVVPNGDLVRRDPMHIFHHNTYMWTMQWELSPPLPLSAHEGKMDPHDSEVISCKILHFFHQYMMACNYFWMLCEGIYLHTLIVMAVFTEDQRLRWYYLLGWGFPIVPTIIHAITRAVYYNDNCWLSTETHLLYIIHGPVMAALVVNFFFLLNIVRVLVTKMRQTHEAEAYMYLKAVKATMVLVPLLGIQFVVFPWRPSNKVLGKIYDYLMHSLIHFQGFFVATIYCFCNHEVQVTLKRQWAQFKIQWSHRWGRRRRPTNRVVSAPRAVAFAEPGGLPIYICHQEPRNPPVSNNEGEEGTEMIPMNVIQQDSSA
T1 sequence (looked up) 2: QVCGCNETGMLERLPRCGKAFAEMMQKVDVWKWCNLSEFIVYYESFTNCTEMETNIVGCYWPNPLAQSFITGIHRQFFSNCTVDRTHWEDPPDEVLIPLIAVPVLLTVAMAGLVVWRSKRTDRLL

T2: rat calcitonin receptor (rat, UniProt P32214 25-516)
T2 sequence (looked up): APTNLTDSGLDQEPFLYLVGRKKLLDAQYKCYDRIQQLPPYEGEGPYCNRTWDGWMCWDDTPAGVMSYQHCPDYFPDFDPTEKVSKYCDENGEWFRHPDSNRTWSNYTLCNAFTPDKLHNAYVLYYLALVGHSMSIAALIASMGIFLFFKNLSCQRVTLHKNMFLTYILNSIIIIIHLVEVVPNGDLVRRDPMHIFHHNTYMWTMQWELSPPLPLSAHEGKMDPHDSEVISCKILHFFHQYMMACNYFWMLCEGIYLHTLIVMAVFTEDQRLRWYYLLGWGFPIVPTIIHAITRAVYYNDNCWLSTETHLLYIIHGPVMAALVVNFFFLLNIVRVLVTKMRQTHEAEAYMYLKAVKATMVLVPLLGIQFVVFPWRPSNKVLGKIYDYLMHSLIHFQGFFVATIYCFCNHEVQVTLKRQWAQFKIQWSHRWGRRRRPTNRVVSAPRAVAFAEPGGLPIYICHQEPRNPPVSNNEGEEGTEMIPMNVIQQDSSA

T3: human amylin receptor (calcitonin receptor co-expressed with receptor activity modifying protein, RAMP3) (human, UniProt P30988 25-474; O60896 24-148)
T3 sequence (looked up) 1: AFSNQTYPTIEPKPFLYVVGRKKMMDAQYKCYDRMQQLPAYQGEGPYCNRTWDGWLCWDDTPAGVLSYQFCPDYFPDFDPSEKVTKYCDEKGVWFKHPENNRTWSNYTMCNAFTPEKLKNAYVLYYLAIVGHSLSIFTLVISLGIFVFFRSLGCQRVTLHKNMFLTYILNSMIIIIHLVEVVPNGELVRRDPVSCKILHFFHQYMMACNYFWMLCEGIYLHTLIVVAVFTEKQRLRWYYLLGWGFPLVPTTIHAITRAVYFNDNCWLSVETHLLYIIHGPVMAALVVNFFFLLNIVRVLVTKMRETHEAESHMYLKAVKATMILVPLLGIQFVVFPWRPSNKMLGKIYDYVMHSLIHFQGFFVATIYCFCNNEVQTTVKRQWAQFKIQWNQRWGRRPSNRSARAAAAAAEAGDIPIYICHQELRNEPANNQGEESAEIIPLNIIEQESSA
T3 sequence (looked up) 2: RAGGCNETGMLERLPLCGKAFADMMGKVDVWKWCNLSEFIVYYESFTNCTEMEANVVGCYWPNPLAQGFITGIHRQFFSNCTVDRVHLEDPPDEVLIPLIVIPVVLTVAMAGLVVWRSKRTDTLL

T4: human calcitonin receptor (human, UniProt P30988 25-474)
T4 sequence (looked up): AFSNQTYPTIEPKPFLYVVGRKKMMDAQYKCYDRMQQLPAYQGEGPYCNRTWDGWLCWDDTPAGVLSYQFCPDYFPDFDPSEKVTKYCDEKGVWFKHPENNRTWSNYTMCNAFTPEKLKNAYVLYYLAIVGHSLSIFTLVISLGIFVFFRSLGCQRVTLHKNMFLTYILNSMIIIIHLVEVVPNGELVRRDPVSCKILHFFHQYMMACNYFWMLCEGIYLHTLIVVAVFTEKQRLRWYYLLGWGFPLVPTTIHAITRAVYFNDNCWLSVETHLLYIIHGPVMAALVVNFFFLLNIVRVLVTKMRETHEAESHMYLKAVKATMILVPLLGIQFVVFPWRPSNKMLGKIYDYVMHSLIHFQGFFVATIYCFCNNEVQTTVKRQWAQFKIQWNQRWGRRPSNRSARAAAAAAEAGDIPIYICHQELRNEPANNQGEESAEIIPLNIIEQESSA


Experiments:
Assay in all cases: cell-based or functional assay
[1] = target: T1, rat amylin receptor (calcitonin …)
rat calcitonin receptor = target: T2, rat calcitonin receptor
[2] = target: T3, human amylin receptor (calcitonin …)
[3] = target: T4, human calcitonin receptor

Binder	EC50 (cAMP production) [1] [nM]	EC50 (cAMP production) (rat calcitonin receptor) [nM]	EC50 (cAMP production) [2] [nM]	Ratio (EC50 hCTR / EC50 hAMYR3) [2]	EC50 (cAMP production) [3] [nM]
K([γGlu-γGlu-C18 diacid])CNTATCATQRLANFLRHSSNN[αMeF]GPILPPTNVGSNTY-NH2 (disulfide 2-7; N-terminus assumed; SMILES CC[C@H](C)[C@H](NC(=O)[C@@H]1CCCN1C(=O)CNC(=O)[C@](C)(Cc1ccccc1)NC(=O)[C@H](CC(N)=O)NC(=O)[C@H](CC(N)=O)NC(=O)[C@H](CO)NC(=O)[C@H](CO)NC(=O)[C@H](Cc1c[nH]cn1)NC(=O)[C@H](CCCNC(=N)N)NC(=O)[C@H](CC(C)C)NC(=O)[C@H](Cc1ccccc1)NC(=O)[C@H](CC(N)=O)NC(=O)[C@H](C)NC(=O)[C@H](CC(C)C)NC(=O)[C@H](CCCNC(=N)N)NC(=O)[C@H](CCC(N)=O)NC(=O)[C@@H](NC(=O)[C@H](C)NC(=O)[C@@H]1CSSC[C@H](NC(=O)[C@@H](N)CCCCNC(=O)CC[C@H](NC(=O)CC[C@H](NC(=O)CCCCCCCCCCCCCCCCC(=O)O)C(=O)O)C(=O)O)C(=O)N[C@@H](CC(N)=O)C(=O)N[C@@H]([C@@H](C)O)C(=O)N[C@@H](C)C(=O)N[C@@H]([C@@H](C)O)C(=O)N1)[C@@H](C)O)C(=O)N[C@@H](CC(C)C)C(=O)N1CCC[C@H]1C(=O)N1CCC[C@H]1C(=O)N[C@H](C(=O)N[C@@H](CC(N)=O)C(=O)N[C@H](C(=O)NCC(=O)N[C@@H](CO)C(=O)N[C@@H](CC(N)=O)C(=O)N[C@H](C(=O)N[C@@H](Cc1ccc(O)cc1)C(N)=O)[C@@H](C)O)C(C)C)[C@@H](C)O) [Peptide 20 (SEQ ID NO: 20)]	0.0104	1.85	0.174	26	4.59
K([γGlu-γGlu-C18 diacid])CNTATCATQRLANFLVHSSNN[αMeF]GPILPPTRVGSNTY-NH2 (disulfide 2-7; N-terminus assumed; SMILES CC[C@H](C)[C@H](NC(=O)[C@@H]1CCCN1C(=O)CNC(=O)[C@](C)(Cc1ccccc1)NC(=O)[C@H](CC(N)=O)NC(=O)[C@H](CC(N)=O)NC(=O)[C@H](CO)NC(=O)[C@H](CO)NC(=O)[C@H](Cc1c[nH]cn1)NC(=O)[C@@H](NC(=O)[C@H](CC(C)C)NC(=O)[C@H](Cc1ccccc1)NC(=O)[C@H](CC(N)=O)NC(=O)[C@H](C)NC(=O)[C@H](CC(C)C)NC(=O)[C@H](CCCNC(=N)N)NC(=O)[C@H](CCC(N)=O)NC(=O)[C@@H](NC(=O)[C@H](C)NC(=O)[C@@H]1CSSC[C@H](NC(=O)[C@@H](N)CCCCNC(=O)CC[C@H](NC(=O)CC[C@H](NC(=O)CCCCCCCCCCCCCCCCC(=O)O)C(=O)O)C(=O)O)C(=O)N[C@@H](CC(N)=O)C(=O)N[C@@H]([C@@H](C)O)C(=O)N[C@@H](C)C(=O)N[C@@H]([C@@H](C)O)C(=O)N1)[C@@H](C)O)C(C)C)C(=O)N[C@@H](CC(C)C)C(=O)N1CCC[C@H]1C(=O)N1CCC[C@H]1C(=O)N[C@H](C(=O)N[C@@H](CCCNC(=N)N)C(=O)N[C@H](C(=O)NCC(=O)N[C@@H](CO)C(=O)N[C@@H](CC(N)=O)C(=O)N[C@H](C(=O)N[C@@H](Cc1ccc(O)cc1)C(N)=O)[C@@H](C)O)C(C)C)[C@@H](C)O) [Peptide 24 (SEQ ID NO: 24)]	0.0177	0.755	0.127	15	1.86
